Results: patent US20260055206A1 (GENSUN BIOPHARMA, published 2026)
Changes are numbered by the printed parent chain.

T1: human DLL3 (over-expressed on CHO-K1 cells) (human, UniProt Q9NYJ7 27-618)
T1 construct: whole, on cells; also called huDLL3; Delta-like 3
T1 sequence (looked up): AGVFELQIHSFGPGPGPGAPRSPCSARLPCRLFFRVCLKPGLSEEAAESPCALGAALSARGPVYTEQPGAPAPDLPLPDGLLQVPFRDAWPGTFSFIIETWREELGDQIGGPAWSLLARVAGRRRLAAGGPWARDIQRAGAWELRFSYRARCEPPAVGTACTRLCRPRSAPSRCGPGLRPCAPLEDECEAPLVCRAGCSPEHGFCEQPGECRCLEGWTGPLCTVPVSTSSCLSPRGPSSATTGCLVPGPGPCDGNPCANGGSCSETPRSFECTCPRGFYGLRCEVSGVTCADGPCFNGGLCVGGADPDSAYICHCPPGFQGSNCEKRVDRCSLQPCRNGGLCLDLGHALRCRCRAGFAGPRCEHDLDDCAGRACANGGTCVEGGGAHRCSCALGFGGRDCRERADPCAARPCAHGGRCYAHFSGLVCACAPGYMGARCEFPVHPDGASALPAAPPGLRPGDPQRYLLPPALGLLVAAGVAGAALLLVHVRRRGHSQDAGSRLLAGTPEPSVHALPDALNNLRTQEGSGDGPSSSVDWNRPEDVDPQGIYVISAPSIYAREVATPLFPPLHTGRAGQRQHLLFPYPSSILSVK

B1: DLL3.1 (humanized anti-DLL3 antibody) (antibody, V domains shown)
VH: QVQLVQSGAEVKKPGASVKVSCKASDYTFSNYYIEWVRQAPGQGLEWMGEILPGNGNTVYNEKFKDRVTMTVDTSTSTAYMELRSLRSDDTAVYYCARWGDYALFANWGQGTLVTVSS
VL: DIQMTQSPSTLSASVGDRVTITCKASQNVGTNVAWYQQKPGKAPKALIYSASYRYSGVPSRFSGSGSGTEFTLTISSLQPDDFATYYCQQYNSYPFTFGQGTKLEIK
notes: it was detected with anti-human IgG Fc
B2: DLL3.4 (humanized anti-DLL3 antibody) (antibody, V domains shown)
VH: B1 VH with S25T, T28I, N55T, A79V, R84S, D89E
VL: B1 VL with T10F, A46P, A51T, D81E, S93N, F96L, Q100G, L104V
notes: as for B1
B3: DLL3.3 (humanized anti-DLL3 antibody) (antibody, V domains shown)
VH: QVQLVQSGAEVKKPGASVKVSCKASGYTFTDYFMNWVRQAPGQGLEWMGVINPYNDITIYNQKFQGRVTMTVDRSTSTVYMELSSLRSEDTAVYYCAREGVLYDGYYEGAYWGQGTLVTVSS
VL: DIQLTQSPSFLSASVGDRVTITCKASQNVGIAVAWYQQKPGKAPKLLIYAASNRYTGVPSRFSGSGSGTEFTLTISSLQPEDFATYYCQQYSTYPYTFGQGTKLEIK
notes: as for B1

Target: T1, human DLL3 (over-expressed on CHO-K1 …)
Assay: flow cytometry (iQue) on CHO-K1 cells over-expressing human DLL3, PE anti-human IgG Fc secondary
Method: To evaluate the ability of anti-DLL3 antibodies to bind, human serial dilutions of the anti-DLL3 antibodies were added to CHO-K1 cells (20,000 cells/well) over-expressing human or cyno DLL3. The mixtures were incubated at 4° C. for 20 minutes, washed 3 times, and stained with the secondary antibody, PE labeled F(ab′)2-Goat anti-human IgG Fc (Thermo H10104) at 4° C. for 20 minutes. Cells were washed and resuspended in 7-Amino-Actinomycin D (7-AAD) solution and fixed in 10% neutral buffered formalin solution for 15 minutes before analysis with the iQue-Intellicyt […]™ iQUE™ system. FIG. 3A is a graph of the concentration (nM) versus the mean fluorescence intensity.

Row | Binder | binding result
1 | B1 | binds
2 | B2 | binds
3 | B3 | binds
